Data taken from US20260274955A1 (JANUX THERAPEUTICS, published 2026).

How the values were obtained:
[1] = target: anti-CD28 Fab (SEQ ID NOs: 202, 203); test: phage ELISA, Fab on plate;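 note: ELISA of crude clonal phage supernatants on the plate, wells preloaded with CD28 antigen or only blocking buffer, captured phage read out via HRP-linked anti-M13 antibody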
[2] = target: anti-CD28 Fab (SEQ ID NOs: 202, 203); test: phage ELISA, Fab on plate, CD28 antigen as competitor;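 note: wells pre-incubated with CD28 antigen in blocking buffer (reference: blocking buffer only) before adding crude clonal phage supernatant, bound phage read with HRP-coupled anti-M13 antibody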
Protocol: After panning, phage infected bacteria were plated out and colonies picked into 96 well blocks. Clonal phage was then amplified and separated from bacterial cells via centrifugation.
Clonal phage were harvested as crude supernatants and screened via standard ELISAs. […] Prior to the addition of clonal phage, wells were incubated with blocking buffer and CD28 antigen or blocking buffer alone. Without washing or aspirating, clonal phage supernatants were then added to the wells and incubated for a short time. Wells were then washed followed by detection of bound phage using a horse radish conjugated anti-M13 antibody. Clonal phage of interest were then sent for sequence analysis.

Sequence of anti-CD28 Fab (SEQ ID NOs: 202, 203) (VH, as listed by the source, chain 1 of 2): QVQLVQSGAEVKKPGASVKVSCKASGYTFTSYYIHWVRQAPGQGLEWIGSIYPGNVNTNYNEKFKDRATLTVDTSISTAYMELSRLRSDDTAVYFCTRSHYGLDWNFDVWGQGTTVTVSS
Sequence of anti-CD28 Fab (SEQ ID NOs: 202, 203) (VL, as listed by the source, chain 2 of 2): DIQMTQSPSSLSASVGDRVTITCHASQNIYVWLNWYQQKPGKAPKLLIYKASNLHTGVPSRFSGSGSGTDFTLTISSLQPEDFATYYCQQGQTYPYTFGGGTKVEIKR

Binder | Anti-CD28 Fab signal [1] | Anti-CD28 Fab signal in the presence of CD28 [2]
SCSAGATYEWPYCF [Phage-1113] | 1.47 | 0.06
SCSAGATYQWPYCF [Phage-1176] | 1.26 | 0.06
PCSDGVAYPWPYCV [Phage-1191] | 1.2 | 0.06
TCSAGATYMWPACF [Phage-1120] | 1.44 | 0.1
TCSAGATYKWPACF [Phage-1172] | 1.29 | 0.05
TCSAGATYAWPACF [Phage-1121] | 1.44 | 0.08
SCSAGATYTWPACL [Phage-1158] | 1.34 | 0.07
TCAAGATYMWPVCL [Phage-1180] | 1.24 | 0.07
TCAAGATYTWPTCF [Phage-1108] | 1.48 | 0.05
WCGVGMDWRWPECL [Phage-1122] | 1.44 | 0.16
SCADGAIWEWPWCF [Phage-1164] | 1.32 | 0.07
LCAAGATYPWPICL [Phage-1115] | 1.46 | 0.08
SCAAGATYVWPMCF [Phage-1127] | 1.42 | 0.07
SCAAGATYTWPFCL [Phage-1170] | 1.29 | 0.07
SCSAGALWKWPVCF [Phage-1116] | 1.45 | 0.07
TCAAGAHYSWPFCM [Phage-1128] | 1.42 | 0.07
SCAAGATWKWPECL [Phage-1181] | 1.24 | 0.07
TCAAGATYEWPSCL [Phage-1165] | 1.32 | 0.09
LCAAGATYPWPDCV [Phage-1188] | 1.21 | 0.05
TCEDGFHFSWPECF [Phage-1123] | 1.44 | 0.07
NCAAGAMYSWPTCL [Phage-1178] | 1.25 | 0.07
TCSAGATYKWPVCL [Phage-1112] | 1.47 | 0.06
TCSAGFSYKWPWCW [Phage-1117] | 1.45 | 0.06
TCADGAFWQWPVCL [Phage-1184] | 1.22 | 0.07
TCAAGAVWTWPICF [Phage-1183] | 1.23 | 0.05
TCAAGAHYTWPTCL [Phage-1111] | 1.47 | 0.07
LCAAGAYYPWPLCF [Phage-1173] | 1.28 | 0.06
TCSAGAHYSWPKCF [Phage-1159] | 1.33 | 0.07

Binder | Anti-CD28 Fab signal [1] | Anti-CD28 Fab signal in the presence of CD28 [2]
TCAAGAMYQWPECF [Phage-1110] | 1.48 | 0.06
PCAAGAMWAWPYCL [Phage-1105] | 1.49 | 0.05
SCAAGAMWEWPKCF [Phage-1163] | 1.32 | 0.09
SCSAGAMYQWPLCF [Phage-1118] | 1.44 | 0.09
TCAAGASWEWPACL [Phage-1109] | 1.48 | 0.08
SCAAGAHWSWPVCF [Phage-1192] | 1.2 | 0.08
TCTAGFSYKWPTCL [Phage-1174] | 1.28 | 0.09
LCEEFFHYSWPLCL [Phage-1190] | 1.21 | 0.06
LCAAGAAWEWPMCF [Phage-1167] | 1.3 | 0.06
WCDQFFHYKWPLCL [Phage-1126] | 1.42 | 0.07
SCSAGAMYTWPTCL [Phage-1166] | 1.31 | 0.08
SCAEVFNYVWPFCF [Phage-1161] | 1.32 | 0.07
TCAAGVHFGWPLCF [Phage-1107] | 1.49 | 0.07
SCAAGATYSWPACL [Phage-1177] | 1.25 | 0.07
TCAAGVPYKWPPCL [Phage-1169] | 1.29 | 0.06
TCAAGAAYTWPVCF [Phage-1162] | 1.32 | 0.08
TCSAGASWGWPWCL [Phage-1185] | 1.22 | 0.07
TCAAGAHYLWPHCL [Phage-1104] | 1.5 | 0.12
QCSAGATYAWPFCL [Phage-1168] | 1.29 | 0.08
TCAAGANWHWPWCF [Phage-1114] | 1.46 | 0.15
SCAAGAHYPWPECL [Phage-1160] | 1.32 | 0.05
QCAAGAMWTWPVCF [Phage-1103] | 1.5 | 0.07
RCAAGAMWTWPACF [Phage-1179] | 1.25 | 0.06
RCAAVFSYTWPPCL [Phage-1171] | 1.29 | 0.07
TCAAGATWLWPWCL [Phage-1182] | 1.23 | 0.07
TCSAGATYSWPYCL [Phage-1186] | 1.22 | 0.07
TCAAGANWPWPECL [Phage-1189] | 1.21 | 0.08
